Measured values as given in patent publication US20120076797A1, “Modulation of kit signaling and hematopoietic cell development by IL-4 receptor modulation” (priority 2010, published 2012).
Entries after “also recorded” stand apart in the source; their conditions may differ.

Experiments:
Format in all cases: cell-based
[1] = tested on: IL-4R (IL-4Rα and γc subunits); test: KL stimulation of M07e cells; immunoprecipitation of IL-4R subunits and phosphotyrosine immunoblotting; settings: growth factor- and serum-deprived 12 hours, 250 ng/ml recombinant human KL, no IL-4
Experimental: (§1) Cell culture. M07e cells (DSMZ, Braunschweig, Germany) were cultured in RPMI-1640 (Invitrogen/Gibco, Carlsbad, Calif.) with 10% fetal calf serum (FCS; Omega Scientific, Tarzana, Calif.) in the presence of human IL-3 (20 ng/ml; Biosource, Camarillo, Calif.) and human IL-4 (20 ng/ml; R&D Systems Inc, Minneapolis, Minn.). For stimulation of Kit with Kit ligand (KL), M07e cells were growth factor—as well as serum-deprived for 12 hours prior to stimulation with 250 ng/ml of recombinant human KL (Biosource, Camarillo, Calif.).
(§2) Immunoprecipitation and immunoblotting. Immunoprecipitation and immunoblotting were performed as reported previously (Mani, M. et al. Blood 114, 2900-2908 (2009)). Following stimulation with KL, cells were collected in ice-cold PBS containing 1 mM sodium ortho-vanadate (Sigma, St. Louis, Mo.), resuspended at a density of 1×10^7-2×10^7 cells/ml in lysis buffer containing 10 mM Tris-HCl (pH7.4), 150 mM NaCl, 20 mM sodium phosphate (pH7.4), 10 mM sodium pyrophosphate (pH7.4), 5 mM EDTA, 1 mM sodium ortho-vanadate, 1 mM glycerophosphate (Sigma) and 1% Triton X-100, and lysed. Protease inhibitors (Complete Protease Inhibitor Cocktail, Roche, Indianapolis, Ind.) were added according to manufacturer's recommendations. Post-nuclear supernatants were subjected to one round of pre-clearing with Protein A Sepharose (Amersham/Pharmacia, Piscataway, N.J.). […]

Kit = molecular target: T1, Kit (Homo sapiens, UniProt P10721); test: KL stimulation of M07e cells; phosphorylation of Kit; settings: 250 ng/ml recombinant human KL
T1 construct: M07e cells are known to express both Kit and IL-4R; host or cells: M07e (human megakaryoblastic cell line)
Experimental: as §1, §2

[2] = tested on: murine HSC (Lin-Sca-1+Kit+); IL-4R/STAT6; test: Intracellular phospho-STAT6 analysis (Phospho-Flow) of murine HSC after IL-4 stimulation; settings: murine bone marrow Lin-Sca-1+Kit+ HSC, 1 ng/ml recombinant mouse IL-4, 15 min
Source text: Intracellular phospho-STAT6 analysis. Cells derived from c-Kit(BAC)-EGFP mice that are transgenic for a bacterial artificial chromosome expressing EGFP under the control of the Kit promoter were used instead of anti-Kit antibodies (Tallini, Y. N. et al. Proc Natl Acad Sci USA 106, 1808-1813 (2009)). Freshly isolated murine bone marrow mononuclear cells were suspended in cold RPMI-1640 containing 10% FBS and stained with PE-CY7 conjugated anti-mouse Sca-1 (BD Biosciences, San Jose, Calif., Cat 558162) and PE conjugated anti-mouse lineage cocktail (Biolegend, San Diego, Calif. Cat: 78035) at 4° C. for 60 min. The cells were washed with cold RPMI-1640 containing 10% FBS and resuspended in pre-warmed RPMI-1640 containing 10% FBS at concentration of 5-10 million cells/ml. Cells were transferred as 0.5 ml aliquots into flow cytometry test tubes (BD Biosciences, Falcon 2052), rested at 37° C. for 1 hr and stimulated with 1 ng/ml of recombinant mouse IL-4 (Invitrogen, Cat: PMC 0045) for 15 min. Cells were fixed by adding 25 μl of 32% paraformaldehyde (EM grade, Electron Microscopy Sciences, Hatfield, Pa., Cat: 15714) at room temperature for 10 min. […] Samples were washed (centrifugation at 1800 rpm for 5 min) once with staining buffer and analyzed on an FACS Aria II (BD Biosciences). The results were analyzed using Flow Jo software.

T1 sequence (P10721 26-976): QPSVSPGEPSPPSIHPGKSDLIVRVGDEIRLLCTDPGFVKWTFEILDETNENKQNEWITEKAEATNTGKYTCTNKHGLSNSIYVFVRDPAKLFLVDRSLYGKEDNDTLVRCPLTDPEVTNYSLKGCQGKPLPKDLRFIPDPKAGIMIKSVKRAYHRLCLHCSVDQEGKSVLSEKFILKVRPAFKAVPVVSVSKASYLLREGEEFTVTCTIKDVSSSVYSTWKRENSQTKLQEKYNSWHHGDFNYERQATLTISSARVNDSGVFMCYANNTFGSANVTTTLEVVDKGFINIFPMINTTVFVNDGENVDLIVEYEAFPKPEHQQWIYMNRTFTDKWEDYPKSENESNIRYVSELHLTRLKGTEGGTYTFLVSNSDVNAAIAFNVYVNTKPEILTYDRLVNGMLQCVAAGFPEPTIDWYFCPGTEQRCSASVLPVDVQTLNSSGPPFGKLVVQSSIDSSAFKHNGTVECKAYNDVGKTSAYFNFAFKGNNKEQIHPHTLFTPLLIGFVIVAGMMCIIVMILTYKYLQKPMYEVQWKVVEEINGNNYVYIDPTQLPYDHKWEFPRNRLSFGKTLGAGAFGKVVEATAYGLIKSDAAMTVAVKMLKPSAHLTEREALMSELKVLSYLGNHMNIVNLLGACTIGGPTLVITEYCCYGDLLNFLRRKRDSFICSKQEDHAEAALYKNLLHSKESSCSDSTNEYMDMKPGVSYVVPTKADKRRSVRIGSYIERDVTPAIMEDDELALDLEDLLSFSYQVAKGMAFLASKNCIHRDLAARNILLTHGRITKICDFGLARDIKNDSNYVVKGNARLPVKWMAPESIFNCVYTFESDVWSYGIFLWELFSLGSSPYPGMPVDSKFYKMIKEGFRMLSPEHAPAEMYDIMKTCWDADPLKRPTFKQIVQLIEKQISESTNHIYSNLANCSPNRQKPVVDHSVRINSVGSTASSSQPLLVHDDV

phosphorylation of Kit after KL stimulation (Kit)	Molecule	time to tyrosine phosphorylation of IL-4Rα and γc subunits of IL-4R after KL treatment [1]	STAT6 phosphorylation in response to IL-4 stimulation [2]
rapid phosphorylation of Kit	KL: recombinant human Kit ligand (Biosource), ligand of the Kit receptor, used to stimulate M07e cells	≤ 5 min	
	IL-4: recombinant mouse interleukin 4 (Invitrogen), cognate ligand of IL-4R, used to stimulate murine HSC (protein) HIHGCDKNHLREIIGILNEVTGEGTPCTEMDVPNVLTATKNTTESELVCRASKVLRIFYLKHGKTPCLKKNSSVLMELQRLFRAFRCLDSSISCTMNESKSTSLKDFLESLKSIMQMDYS		STAT6 phosphorylation was observed; also recorded: STATE phosphorylation
